{"source": "paper PMC11866755", "origin": "cited, not measured here", "assay_in_all_cases": "NMR", "key": {"Asp101": {"molecular_target": "Asp101 (UniProt position 119, KKIVSDGNGMN)"}, "Asp119": {"molecular_target": "Asp119 (UniProt position 137, RCKGTDVQAWI)"}, "Asp18": {"molecular_target": "Asp18 (UniProt position 36, KRHGLDNYRGY)"}, "Asp48": {"molecular_target": "Asp48 (UniProt position 66, TNRNTDGSTDY)"}, "Asp52": {"molecular_target": "Asp52 (UniProt position 70, TDGSTDYGILQ)"}, "Asp66": {"molecular_target": "Asp66 (UniProt position 84, RWWCNDGRTPG)"}, "Asp87": {"molecular_target": "Asp87 (UniProt position 105, ALLSSDITASV)"}, "Glu35": {"molecular_target": "Glu35 (UniProt position 53, CAAKFESNFNT)"}, "Glu7": {"molecular_target": "Glu7 (UniProt position 25, VFGRCELAAAM)"}, "His15": {"molecular_target": "His15 (UniProt position 33, AAMKRHGLDNY)"}, "Asp40": {"molecular_target": "Asp40 (UniProt position 122, RLLLVDTPETK)", "settings": "folded protein, ligand state not stated"}, "Asp77": {"molecular_target": "Asp77 (UniProt position 159, IEVEFDKGQRT)", "settings": "folded protein, ligand state not stated"}, "Asp83": {"molecular_target": "Asp83 (UniProt position 165, KGQRTDKYGRG)", "settings": "folded protein, ligand state not stated"}, "Asp95": {"molecular_target": "Asp95 (UniProt position 177, AYIYADGKMVN)", "settings": "folded protein, ligand state not stated"}, "Glu10": {"molecular_target": "Glu10 (UniProt position 92, KKLHKEPATLI)", "settings": "folded protein, ligand state not stated"}, "Glu101": {"molecular_target": "Glu101 (UniProt position 183, GKMVNEALVRQ)", "settings": "folded protein, ligand state not stated"}, "Glu122": {"molecular_target": "Glu122 (UniProt position 204, GNNTHEQLLRK)", "settings": "folded protein, ligand state not stated"}, "Glu129": {"molecular_target": "Glu129 (UniProt position 211, LLRKAEAQAKK)", "settings": "folded protein, ligand state not stated"}, "Glu135": {"molecular_target": "Glu135 (UniProt position 217, AQAKKEKLNIW)", "settings": "folded protein, ligand state not stated"}, "Glu43": {"molecular_target": "Glu43 (UniProt position 125, LVDTPETKHPK)", "settings": "folded protein, ligand state not stated"}, "Glu52": {"molecular_target": "Glu52 (UniProt position 134, PKKFNEKYGPE)", "settings": "folded protein, ligand state not stated"}, "Glu57": {"molecular_target": "Glu57 (UniProt position 139, EKYGPEASAFT)", "settings": "folded protein, ligand state not stated"}, "Glu67": {"molecular_target": "Glu67 (UniProt position 149, TKKMVENAKKI)", "settings": "folded protein, ligand state not stated"}, "Glu73": {"molecular_target": "Glu73 (UniProt position 155, NAKKIEVEFDK)", "settings": "folded protein, ligand state not stated"}, "Glu75": {"molecular_target": "Glu75 (UniProt position 157, KKIEVEFDKGQ)", "settings": "folded protein, ligand state not stated"}, "His121": {"molecular_target": "His121 (UniProt position 203, KGNNTHEQLLR)", "settings": "folded protein, ligand state not stated"}, "His8": {"molecular_target": "His8 (UniProt position 90, STKKLHKEPAT)", "settings": "folded protein, ligand state not stated"}, "Asp42": {"molecular_target": "Asp42 (UniProt position 63, KRGCADNCPKN)"}, "Asp59": {"molecular_target": "Asp59 (UniProt position 80, VCCSTDKCN--)"}, "Glu17": {"molecular_target": "Glu17 (UniProt position 38, YKTCPEGKNLC)"}, "His4": {"molecular_target": "His4 (UniProt position 25, YTLKCHNTQLP)"}, "[1]": {"molecular_target": "Glu4 (position 4, --GHAEG----)", "settings": "free peptide in solution"}, "[2]": {"molecular_target": "His2 (position 2, ----GHAEG--)", "settings": "free peptide in solution"}, "[3]": {"molecular_target": "Glu2 (position 2, ----GEAHG--)", "settings": "free peptide in solution"}, "[4]": {"molecular_target": "His4 (position 4, --GEAHG----)", "settings": "free peptide in solution"}, "[5]": {"molecular_target": "Glu2 (position 2, ----GEAEG--)", "settings": "free peptide in solution"}, "[6]": {"molecular_target": "Glu4 (position 4, --GEAEG----)", "settings": "free peptide in solution"}, "[7]": {"molecular_target": "His2 (position 2, ----GHAHG--)", "settings": "free peptide in solution"}, "[8]": {"molecular_target": "His4 (position 4, --GHAHG----)", "settings": "free peptide in solution"}}, "data": [{"molecule": "Hen egg-white lysozyme (HEWL) (Gallus gallus)", "values": [{"measurement": "pKa", "setting": "Asp101", "value": "4.5 ±0.1"}, {"measurement": "pKa", "setting": "Asp119", "value": "3.5 ±0.3"}, {"measurement": "pKa", "setting": "Asp18", "value": "2.8 ±0.3"}, {"measurement": "pKa", "setting": "Asp48", "value": "1.4 ±0.2"}, {"measurement": "pKa", "setting": "Asp52", "value": "3.6 ±0.3"}, {"measurement": "pKa", "setting": "Asp66", "value": "1.2 ±0.2"}, {"measurement": "pKa", "setting": "Asp87", "value": "2.2 ±0.1"}, {"measurement": "pKa", "setting": "Glu35", "value": "6.1 ±0.4"}, {"measurement": "pKa", "setting": "Glu7", "value": "2.6 ±0.2"}, {"measurement": "pKa", "setting": "His15", "value": "5.5 ±0.2"}]}, {"molecule": "Staphylococcal nuclease Delta+PHS (printed as ΔPHS) (Staphylococcus aureus; G50F;V51N;P117G;H124L;S128A;del44-49)", "values": [{"measurement": "pKa", "setting": "Asp40", "value": 3.9}, {"measurement": "pKa", "setting": "Asp77", "value": "<2.2"}, {"measurement": "pKa", "setting": "Asp83", "value": "<2.2"}, {"measurement": "pKa", "setting": "Asp95", "value": 2.2}, {"measurement": "pKa", "setting": "Glu10", "value": 2.8}, {"measurement": "pKa", "setting": "Glu101", "value": 3.8}, {"measurement": "pKa", "setting": "Glu122", "value": 3.9}, {"measurement": "pKa", "setting": "Glu129", "value": 3.8}, {"measurement": "pKa", "setting": "Glu135", "value": 3.8}, {"measurement": "pKa", "setting": "Glu43", "value": 4.3}, {"measurement": "pKa", "setting": "Glu52", "value": 3.9}, {"measurement": "pKa", "setting": "Glu57", "value": 3.5}, {"measurement": "pKa", "setting": "Glu67", "value": 3.58}, {"measurement": "pKa", "setting": "Glu73", "value": 3.3}, {"measurement": "pKa", "setting": "Glu75", "value": 3.3}, {"measurement": "pKa", "setting": "His121", "value": 5.24}, {"measurement": "pKa", "setting": "His8", "value": 6.5}]}, {"molecule": "Cardiotoxin V (cytotoxin 5, CTX A5) (Naja atra (printed as Naja naja atra, Chinese/Taiwan cobra))", "values": [{"measurement": "pKa", "setting": "Asp42", "value": 3.2}, {"measurement": "pKa", "setting": "Asp59", "value": "<2.0"}, {"measurement": "pKa", "setting": "Glu17", "value": 4.0}, {"measurement": "pKa", "setting": "His4", "value": 5.5}]}, {"molecule": "GHAEG", "note": "[Pentapeptide GHAEG (synthetic)]", "values": [{"measurement": "pKa", "setting": "[1]", "value": 3.81}, {"measurement": "pKa", "setting": "[2]", "value": 6.14}]}, {"molecule": "GEAHG", "note": "[Pentapeptide GEAHG (synthetic)]", "values": [{"measurement": "pKa", "setting": "[3]", "value": 3.76}, {"measurement": "pKa", "setting": "[4]", "value": 6.59}]}, {"molecule": "GEAEG", "note": "[Pentapeptide GEAEG (synthetic)]", "values": [{"measurement": "pKa", "setting": "[5]", "value": 4.06}, {"measurement": "pKa", "setting": "[6]", "value": 4.04}]}, {"molecule": "GHAHG", "note": "[Pentapeptide GHAHG (synthetic)]", "values": [{"measurement": "pKa", "setting": "[7]", "value": 6.23}, {"measurement": "pKa", "setting": "[8]", "value": 6.66}]}]}
